In article PMC11144326, “Structure–function characterization of two enzymes from novel subfamilies of manganese peroxidases secreted by the lignocellulose-degrading Agaricales fungi Agrocybe pediades and Cyathus striatus” (Biotechnology for Biofuels and Bioproducts, 2024) one finds Km, kcat and kcat/Km data, which are given here for six molecules.

Data set [1] concerns Ape-MnP1. As to conditions: read-out: Ape-MnP1 Q333P; 0.3 mM H2O2, 100 mM sodium tartrate, optimal pH, 25 °C.
The test system of data set [2] is Ape-MnP1. The experiment in a line: steady-state oxidation, coerulignone formation at […] nm. The format is biochemical, Agrocybe pediades. Particulars: 0.3 mM H2O2, 100 mM sodium tartrate, optimal pH, 25 °C; read-out: Ape-MnP1 Q333P.
Substrate in data set [3]: CCn1c(=NN=c2sc3cc(S(=O)(=O)O)ccc3n2CC)sc2cc(S(=O)(=O)O)ccc21
In words: purified protein. It counts as biochemical, Agrocybe pediades. Particulars: 0.3 mM H2O2, 100 mM sodium tartrate, optimal pH, 25 °C.

Substrate in data set [4]: COc1cccc(OC)c1O
The experiment in a line: purified protein. It counts as biochemical, Agrocybe pediades. As to conditions: 0.3 mM H2O2, 100 mM sodium tartrate, optimal pH, 25 °C.

Substrate in data set [5]: CCn1c(=NN=c2sc3cc(S(=O)(=O)O)ccc3n2CC)sc2cc(S(=O)(=O)O)ccc21
The experiment in a line: purified protein. As to conditions: 0.3 mM H2O2, 100 mM sodium tartrate, optimal pH, 25 °C. The format is biochemical, Cyathus striatus.

Substrate in data set [6]: COc1cccc(OC)c1O
The experiment in a line: purified protein. It counts as biochemical, Cyathus striatus. As to conditions: 0.3 mM H2O2, 100 mM sodium tartrate, optimal pH, 25 °C.

Read-outs that look alike come from different tables or passages of the source.

For the molecule `CCn1c(=NN=c2sc3cc(S(=O)(=O)O)ccc3n2CC)sc2cc(S(=O)(=O)O)ccc21` [ABTS], in data set [1], the Km turned out to be 1.89 ± 0.25 mM.

For the molecule `COc1cccc(OC)c1O` [DMP], the Km in data set [2] came out at 2.9 ± 0.59 mM.

B1: Ape-MnP1 (Agrocybe pediades) (protein)
chain: TICADGTSVANGACCKLIPVVKDLTENLFEGECGDAAHGALRLVFHDAIAISPTLGGGGADGSIAVFNATELTFHANTGIDDVLDAVGPFLLKHSDVMTPGDFIQLAGAVSLTQCNGAPRVKFVMGRPPPKAAAPNLLVPEPFDSVATILQRFGELGFTKEETVAVIGGSHSVAGADDIVPNEQGIPFDQTPSIFDTQIFVDVQLRGTMIPGNGTTEGEVETAVPGTVRLQSDHLLARDASTSCIWQSFVNQQSKMAQVFGEAIFKMSLLGQTQSKLIDCSEVIPRAIPFSHGPATLPPGQTLKDIEQACAASPFPTLSTQPGPVTSVPAIPQADDS
As for B1, in data set [3], the Km is 2730 ± 280 µM, the kcat amounted to 146 ± 6 s⁻¹ and the catalytic efficiency (kcat/Km) was 53 ± 6 s⁻¹ mM⁻¹. For the same molecule, in data set [4], the Km was determined as 2880 ± 490 µM, the turnover number (kcat) was 11.5 ± 0.8 s⁻¹ and the kcat/Km is 4.2 ± 0.5 s⁻¹ mM⁻¹.

B2: Cst-MnP1 (Cyathus striatus) (protein)
chain: VTCPDGHVTANRACCALFPVVQNLQENLFDGGECGEEAHSALRLSFHDAIGFSLNSNKGGGADGSILLFNATELTFHANGGIDDITSRQFPVFETTGLTPGDFVHLAGAVGTANCPGAPRLQFMFGRPPPIAPAPDLTVPEPTDDVDAILARFADAGFDASEVVALLSSHTIAAADVVDVTIPGTPFDSTVGTFDTQVFLEVLLAGRSFPGNGSQPGEVLSPLAGEMRLQSDFVVSRDSRTACLWQAMVNNQQLMVSSFAAAMAKLQVLGQNVNTMVDCSDVIPEPAPFAGPIKFPASFSMADVEQACASTFPQIQTVAGPAPTVAPVPGS
With B2, in data set [5], the Km stood at 3250 ± 220 µM, the kcat stood at 60 ± 1.4 s⁻¹ and the specificity constant (kcat/Km) was found to be 18 ± 1.3 s⁻¹ mM⁻¹. In addition, in data set [6], the Km was 4.65 ± 0.56 mM, the kcat was found to be 4.2 ± 0.2 s⁻¹ and the kcat/Km came to 0.98 ± 0.12 s⁻¹ mM⁻¹.

B3: Cst-MnP1 (Cyathus striatus; S40A) (protein)
chain: VTCPDGHVTANRACCALFPVVQNLQENLFDGGECGEEAHAALRLSFHDAIGFSLNSNKGGGADGSILLFNATELTFHANGGIDDITSRQFPVFETTGLTPGDFVHLAGAVGTANCPGAPRLQFMFGRPPPIAPAPDLTVPEPTDDVDAILARFADAGFDASEVVALLSSHTIAAADVVDVTIPGTPFDSTVGTFDTQVFLEVLLAGRSFPGNGSQPGEVLSPLAGEMRLQSDFVVSRDSRTACLWQAMVNNQQLMVSSFAAAMAKLQVLGQNVNTMVDCSDVIPEPAPFAGPIKFPASFSMADVEQACASTFPQIQTVAGPAPTVAPVPGS
For the molecule B3, in data set [5], the Km turned out to be 2990 ± 455 µM, the kcat stood at 112 ± 4.6 s⁻¹ and the specificity constant (kcat/Km) amounted to 37.5 ± 5.9 s⁻¹ mM⁻¹.

B4: Cst-MnP1 (Cyathus striatus; E36A) (protein)
chain: VTCPDGHVTANRACCALFPVVQNLQENLFDGGECGAEAHSALRLSFHDAIGFSLNSNKGGGADGSILLFNATELTFHANGGIDDITSRQFPVFETTGLTPGDFVHLAGAVGTANCPGAPRLQFMFGRPPPIAPAPDLTVPEPTDDVDAILARFADAGFDASEVVALLSSHTIAAADVVDVTIPGTPFDSTVGTFDTQVFLEVLLAGRSFPGNGSQPGEVLSPLAGEMRLQSDFVVSRDSRTACLWQAMVNNQQLMVSSFAAAMAKLQVLGQNVNTMVDCSDVIPEPAPFAGPIKFPASFSMADVEQACASTFPQIQTVAGPAPTVAPVPGS
On to B4, for which, in data set [5], the Km was found to be 1900 ± 455 µM, the kcat is 67 ± 18 s⁻¹ and the kcat/Km is 35.5 ± 12.8 s⁻¹ mM⁻¹. In addition, in data set [6], the Km was 2.12 ± 0.5 mM, the turnover number (kcat) was 2.62 ± 0.17 s⁻¹ and the kcat/Km is 1.24 ± 0.30 s⁻¹ mM⁻¹.
